Experimental data reported in the nanobody polyreactivity screen of Harvey et al. (2022).

Test: yeast display, Sf9 membrane polyspecificity reagent, FACS + sequencing; frameworks hold sequencing errors
How it was run: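 Using colony PCR, genes from sorted yeast display clones were amplified, then sequenced on MiSeq at 2 × 250 and filtered by CDR length. The clones had been stained with 10% biotinylated, detergent-solubilized Sf9 membrane reagent for 1 hour at 4 °C and sorted by FACS into low and high (top ~1%) gates on anti-HA and streptavidin fluorescence. Polyreactivity labels come from the gate of origin.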

Sequence	polyreactivity (PSR sort gate)
QVQLVESGGGLVQAGGSLRLSCAASGFIFDYYAMGWYRQAPGKERELVAAITSRSGSTYYADSVKGRFTISRDNAKNTVYLQMNSLKPEDTAVYYCARRFKYGSTAWRFYYWGQGTQVSVSS	high polyreactivity
QVQLVESGGGLVQAGGSLRLSCAASGFIFDYYAMGWYRQAPGKERELVASISGDDGRTYYADSVTGRFTISRDNAKNTVYLQMNSLKPEDTAVYDCNAEWGVLNYDYWGQGTQVTVSS	low polyreactivity
QVQLVESGGGLVQAGGSLRLSCAASGFIFDYYAMGWYRQAPGKERELVGAITSGDSTNYADSVKGRFTISRDNAKNTVYLQMNSLKPEDTAVYYWGQGTQVTVSS	low polyreactivity
QVQLVESGGGLVQAGGSLRLSCAASGFIFEGNAMGWYRPAPGKERELVAAISWSGGRTFYADSVKGRFTISRDNAKNTVYLQMNSLKPEDTAVYYCNALPGRRRWQVDYWGQGTQVTVSS	high polyreactivity
QVQLVESGGGLVQAGGSLRLSCAASGFIFEHYAMGWYRQAPGKERELVARISWRGGSTYYGDSVKGRFTISRDNAKNTVYLQMNSLKPEDTAVYYCAKYAHGHKWYGYWGQGTQVTVSS	low polyreactivity
QVQLVESGGGLVQAGGSLRLSCAASGFIFEKYTMGWYRQAPGKERELVAAITWNGGSTYYADSVKGRFTISRDNAKNTVYLQMNSLKPEDTAVYYCAARVGWNKRRYDYWGQGTQVTVSS	low polyreactivity
QVQLVESGGGLVQAGGSLRLSCAASGFIFEYYAMGWYRQAPGKERELVAAISQSGGSTYYADSVKGRFTISRDNAKNTVYLQMNSLKPEDTAVYYCNKTRYSRSYYEYDYWGQGTQVTVSS	low polyreactivity
QVQLVESGGGLVQAGGSLRLSCAASGFIFEYYVMGWYRQAPGKERELVAAISGSGGSTNYADSVKGRFTISRDNAKNTVYLQMNSLKPEDTAVYYCAARYYYFSANIFRYYYWGQGTQVTVSS	high polyreactivity
QVQLVESGGGLVQAGGSLRLSCAASGFIFEYYVMGWYRQAPGKERELVAAISSSDGSTNYADSVKGRFTISRDNAKNTVYLQMNSLKPEDTAVYYCAKDLLKSYNRVVVDADDYWGQGTQVTVSS	low polyreactivity
QVQLVESGGGLVQAGGSLRLSCAASGFIFFGYAMGWYRQAPGKEMELVAAITSGGSTYYADSVKGRFTISRDNAKNTVYLQMNSLKPEDSAVYYCAAVRWYGSKRYGYWGQGTQVTVSS	high polyreactivity
QVQLVESGGGLVQAGGSLRLSCAASGFIFFGYAMGWYRQAPGKERELVAAITSGGSTYYADSVKGRFTISRDNAKNTVYLQMNSLKPEDTAVYYCAASRVRYSYGYPYYYWGQGTQVTVSS	high polyreactivity
QVQLVESGGGLVQAGGSLRLSCAASGFIFFINDMGWYRQAPGKERELVAAISWSGGSTYYADSVKGRFTLSRDNAKNTVYLQMNSLKPEDTAVNYCNTDVPTAQYDYWGQGSQVTVSS	low polyreactivity
QVQLVESGGGLVQAGGSLRLSCAASGFIFFKYVMGWYRPAPGKERELVAAISTTGGRTYYADSVKGRFTISRDNAKNTVYLQMNSLKPEDTAVYYCAADYPVWNHGFDYWGQGTQVTVSS	high polyreactivity
QVQLVESGGGLVQAGGSLRLSCAASGFIFFRYAMGWYRQAPGKERELVAAISSSGGSTYYADSVKGRFTISRDNAKNTVYLQMNSLKPEDTAVYYCAAPRYRIFVGLGMEYWGQGTQVTVSS	high polyreactivity
QVQLVESGGGLVQAGGSLRLSCAASGFIFFTYAMGWYRQSPGKERELVAAISSRGGSTYYADSVKGRFTISRDNAKNTVYLQMNSLKPEDTAVYYCAAQAYGRYPYGYWGQGTQVTVSS	high polyreactivity
QVQLVESGGGLVQAGGSLRLSCAASGFIFFYAMGWYRQAPGKERELVAAISSRGGSTYYADSVKGRFTISRDNAKNTVYLQMNSLKPEDTAVYYCAALLWSAESDYWGQGTQVTVSS	high polyreactivity
QVQLVESGGGLVQAGGSLRLSCAASGFIFGAYAMGWYRQAPGKESELVAAISWSGGRTYYADSLTGRFTISRDNAKNTVYLQMNSLKPEDTAVYYCAAAVYTTRYSASEYWGQGTEVTVSS	high polyreactivity
QVQLVESGGGLVQAGGSLRLSCAASGFIFGDKAMGWYRQAPGKERELVAAINSGSRTSYADSVKGRFTISRDNAKNTVYLQMNSLNPEDTAVYYCAAESVSSGDNASRYDYWGQGTQVTVSS	low polyreactivity
QVQLVESGGGLVQAGGSLRLSCAASGFIFGDYAMGWYRPAPGKERELVAAITWSGDGTYYADSVKGRFTISRDNAKNTVYLQMNSLKPEDTAVYYCAADFSPRRYHNRSFGYWGQGTQVTVSS	low polyreactivity
QVQLVESGGGLVQAGGSLRLSCAASGFIFGDYAMGWYRQAPGKERELVAAIRCSDSTTYYADSVKGRFTISRDNAKNTVYLQMNSLKPEDTAVYYCAAVGVVPRKKSARVYYWGQGTQVTVSS	low polyreactivity
QVQLVESGGGLVQAGGSLRLSCAASGFIFGFYAMGGYRQAPGKERELVAAISWSGGSTYYADSVKGRFTISRDNAKNTVYLQMNSLKPEDTAVYYCAAYFYYLDDAVTYDYWGQGTQVTVSS	low polyreactivity
QVQLVESGGGLVQAGGSLRLSCAASGFIFGFYAMGWYRQAPGKERELVAAISSSGGSTYYADSVKGRFTISRDTAKNTGYLQMNSLKPEDTAVYYCAAYFYYLDDAVTYDYWGQGTQVTVSS	low polyreactivity

Sequence	polyreactivity (PSR sort gate)
QVQLVESGGGLVQAGGSLRLSCAASGFIFGGNAMGWYRQAPGKERELVAAISKSGGRTYYADSVKGRFTISRDNAKNTVYLQMNSLKPEDTAVYYCAAVPGRTAEDYGEDYWGQGTQVTVSS	high polyreactivity
QVQLVESGGGLVQAGGSLRLSCAASGFIFGGNAMGWYRQAPGKVRELVAAITARSGSTYYADSVKGRFTISRDNAKNTVYLQMNSLKPEDTAVYYCAKGSLGSTRYYYWGQGTQVTVSS	low polyreactivity
QVQLVESGGGLVQAGGSLRLSCAASGFIFGGYAMGWYRQAPGKERELVADISSGDSTKYADSVKGRFTISRDNAKNTVYLQMNSLKPEDTAVYYCAADAVVSTWTQFEYDYWGQGTQVTVSS	low polyreactivity
QVQLVESGGGLVQAGGSLRLSCAASGFIFGGYAMGWYRQAPGNERDLVAAITSSGGDTYYADSVKGRFTISRDNAKNTVYLQMNSLKPEDTAVYYCAKRARRIGDVNMGSWGQGTQVTVSS	low polyreactivity
QVQLVESGGGLVQAGGSLRLSCAASGFIFGGYTMGWYRQAPGKERELVAAISKTGGSTYYADSVKGRFTISRDNAKNTVYLQMNSLKPEDTAVYYCAVARSAYYRGNHWGQGTQVTVSS	high polyreactivity
QVQLVESGGGLVQAGGSLRLSCAASGFIFGHNDMGWYRQAPGKERELVASISKSGGDTYYADSVKGRFTISRDNAKNTVYLQMNSLKPEDTAVYYCAADGPDAYYYHRYIYFRRSYYWGHGTQVTVSS	low polyreactivity
QVQLVESGGGLVQAGGSLRLSCAASGFIFGHNTMVWYRQAPGKERELVAAITRSGGRTYYADSVKGRFTISRDNAKNTVYLQMNSLKPEDTAVYYCNAYPTRPADGDYDYWGQGTQVTVSS	high polyreactivity
QVQLVESGGGLVQAGGSLRLSCAASGFIFGHYAMGWYRPAPGKERELVATIRRDPSRTYYADSVKGRFTISRDNAKNTVYLQMNSLKPEDTAVYYCATAQYIWGRSKYYYWGQGTQVTVSS	high polyreactivity
QVQLVESGGGLVQAGGSLRLSCAASGFIFGHYTMGWYRQAPGKERELVAAITTGGRTYYADSVKGRFTISRDNAKNTVYLQMNSLKPEDTAVYYCAARGYIWGQGTQVTVSS	high polyreactivity
QVQLVESGGGLVQAGGSLRLSCAASGFIFGINAMGWYRQAPGKERELVAAISKRTGSTYYADSVKGRFTISRDNAKNTVYLQMNSLKPEDTAVYYCNVVRYNGLDKYDYWGQGTQVTVSS	high polyreactivity
QVQLVESGGGLVQAGGSLRLSCAASGFIFGIYAMGWYRQAPGKERELVAAISYRGGRTYYADSVKGRFTISRDNAKNTVYLQMNSLKPEDTAVYYCNTRGYRPGYNYWGQCTQVTVSS	high polyreactivity
QVQLVESGGGLVQAGGSLRLSCAASGFIFGKYAMGWYRQAPGKEREFVAAITGNGGSTYYADSVKGRFTISRDYAKNTVYLQMNSLKPVDSAVYYCYADRGYRRRSGMVYWGQGTQVSVSS	low polyreactivity
QVQLVESGGGLVQAGGSLRLSCAASGFIFGLYDMGWYRQAPGKERELVAAISWSGGSTYYADSVKGRFTISRDNAKNTVYLQMNSLKPQDTAFYYCAAKHVGWYVQEEDYWGQGSQVTVSS	low polyreactivity
QVQLVESGGGLVQAGGSLRLSCAASGFIFGLYGMGWYRPAPGKERELVAAISTSSGITYYADSVKGRFTISRDNAKNTVYLQMNSLKPEDTAVYYCAARGHYYDYWGQGTQVTVSS	low polyreactivity
QVQLVESGGGLVQAGGSLRLSCAASGFIFGNNDMGWNRQAPGKERELVAGITWSGSSTYYADSVKGRFTISRDNAKNTVYLQMNSLKPEDTAVYYCARDGNDGYEYWGQGTQVTVSS	high polyreactivity
QVQLVESGGGLVQAGGSLRLSCAASGFIFGPNAMGWYRQAPAKERELVAAISYSGGRTYYADSVKGRFTISRDNAKNTVYLQMNSLKPEDTSVYYCAADAYWYGRSYYWGQGTQVTVSS	high polyreactivity
QVQLVESGGGLVQAGGSLRLSCAASGFIFGPNAMGWYRQAPGKERELVAAIRWSSGTTYYADSVKGRFTISRDNAKNTVSLQMNSLKPEDTAVYYCAAGPYVSYYWGQGTQVTVSS	low polyreactivity
QVQLVESGGGLVQAGGSLRLSCAASGFIFGQYAMGWYRQAPGKERELVAAISWSGGRTNYADSVKGRFTISRDNAKNTVYLQMNSLKPEDTAVYYCAARKGKYPQYTYGYWGQGTQVTVSS	high polyreactivity
QVQLVESGGGLVQAGGSLRLSCAASGFIFGRKSMGWYRQAPGKERELVAAISSGDSTYYADSVKGRFTISRDNAKNTVYLQMNSLKPEDTAVYYCAARLVRQQSRPKGGYWGQGTQVTVSS	high polyreactivity
QVQLVESGGGLVQAGGSLRLSCAASGFIFGRNAMGWYRQAPGKEREFVAAITRIGGNTYYADSVKGRFTISRDNAKNTVYLQMNSLKPEDTAVYYCAARLSYFHAYGFYWGQGTQVTVSS	high polyreactivity
QVQLVESGGGLVQAGGSLRLSCAASGFIFGRYAMGWYRQAPGKERELVARITGIGTRTYYADSVKGRFTISRDNAKNTVYLQMNSLKPEDTAVYYCAVRPFYWGQGTQVTVSS	high polyreactivity
